Results published in a protein production outcome set (Wang et al. 2014).

Test: label from the status in PepcDB records

MSLERNYEESALFEHQFWLKVLTDHAQFLLDALAPKEKEDIKKATYFVETFTNLLNKVRNVNLMAFSKEAEQAAKEIRAFKLNIIQKQLEGKITIHFTPTFINHMVNEVEEYIAVLEFLKKGEVPPVFHELHYHLVWLTDAAGHAGSISGGLDLVEKRLKEKSEEFTKHFEQFYLKAVEMTGYLRTELHHFPALKKFTKDVSLELKLFSHFLHEVEELELSNEVLSVLSARMADHMAREECYYLLKLAQSSGLEMPKCNPLEGHHHHHH
protein production: not failed

MNVMRHSWLAVAGIAGLLAFPPVDACTLWGAAGTASMEGSLLAKNRDWKPDHAQSLRLLHPEHGYAYLGLYADNGSEPGIKAGVNQKGLAVVAAEASSLPRALRADSARHGVLTRLLRDYGSLDEVASAADKLFAQARPVFLLLADAGGLMQVEIGQHGRYRLIRQQSGTLAHTNHYADTSLLDGAQTIGPSSQARLERIRFLLDQHPAHTLSEFERLSRDRHDGPDNSLWRSGREHTLAGWRIALPAGAPPRLQLTLANPGRAERDGDYALDSAFWAQPARTLLPLEHHHHHH
protein production: not failed

MQHTEERELKKRLMNTARTVSEMTEVKEALARKKQTEAVRHAVEEIRMINEADYIVVMDMNHIRYTHPVSTSIGKKSEGADEEAAFAEHIYFSEAKGEIGTAVRAFYPVKDQDLNQIGVVLVGKTLPGIADILLHLKRDI
protein production: failed

MPAFSLLPKPSALLPLLLAAAFLPPAFVHAEEEAAKDQPQAPVERPAVSERSQDEAKGLERQLPEDGQQILKAGDESFLTLWLPANTAEAEGVVILVPGDGESPDWPQAIGPLRRKLPDAGWQTLSLALPDPQSTAPVTRPAESAASASADKDASAADSASKPDVKGESGNAPAPESTAEAGSGEPAQSEDQAPPPAIDPVEQRKAHAERVMARLQASIDLALQHEPKSVVLLGHGTGAYWAARYLAEKEPAEIHNLLLVAAEVPRDFRPALEDMVPKLKLATGDFYYRDARADREAARLRMQAGKRQKHPAYVQIAMQALPADPKAEQEQLYRRIRGWLSLHLQADAQKPAE
protein production: failed

MNDRVIQNSRQGERVLAALSYFSIFFAPIILPIFIWIFADRPTSNHAAKSLAYHIITYIGPILLILSIGFGGVLINNSSTITSVIMITVAIILFVITVWYTIKNIYRGVRVLISEHAYFHP
protein production: failed

MLWGMETAVRPEPAPSPLREHLAAGLKGLHPAYFALVMATGIVSIVSDVLGLREAAALLFWLNVPAYAVLWLLVAARALRYPRALAADLASHQRGPGFFTSVAATCVLGLQLVLLRGDAAAALALWWVGMLLWCACTYAVFVALAVRDPKPTLGEGINGGWLVAVVATQSVVVLGTRALVPRYPGSEAVLFFLASLWLCGGMLYVWMISLIFYRYMFFRFSPSDLMPPYWINMGAVAISVVAGTSLAALAPGSAFLGALLPFVKGLTLMFWATATWWIPMLVLLGIWRHGGPSRIRIAYDPLYWGLVFPLGMYALCTYRLGELFAMPVLPWVARTFATVALAAWLLTAFGLAGRFLQLVVLAVRSLHAERGAAGPQPGSLERMARRS
protein production: failed

MSRRSNRTINLPAPYLKRIWLDPSQVHDREAYPFCLPIFPDDFELSFDAAITIIVGENGTGKSTILEGIAALAGYDDAGGGKGYMPVDHSDAREKMGGQLSKALRASWLPKITNGWFFRAESFFSVARYLDKAARDAGQVGPDFLSHSHGEGFLRFFEERCQRQGIFIFDEPESALSPARQIEFLKLLRRMDDSRICQVIMATHSPMLMAYPNAKLLRLGKYGLEPVTVEETDHYRLMREFCDDPRGFVEATLAELEHHHHHH
protein production: not failed

MHLSLMISRHYINRMKLSLMHISILAGIPEEFKVNIYIGWLFKLIPLIMGLICIALGGFVLESSGQSEYFVAGHVLISLAAICLALFTTAFIIISQLTRGVNTFYNTLFPIIGYAGSIITMIWGWALLAGNDVMADEFVAGHVIFGVGMIAACVSTVAASSGHFLLIPKNAAGSKSDGTPVQAYSSLIGNCLIAVPVLLTLLGFIWSITLLRSADITPHYVAGHVLLGLTAICACLIGLVATIVHQTRNTFSTKEHWLWCYWVIFLGSITVLQGIYVLVSSDASARLAPGIILICLGMICYSIFSKVWLLALVWRRTCSLANRIPMIPVFTCLFCLFLASFLAEMAQTDMGYFIPSRVLVGLGAVCFTLFSIVSILEAGSAKK
protein production: failed

MFNIADGGFTELHTLWLNEEKAAVPGREYEIWHRRHDYWLLAGIVTHGYGRWQDIQNDIRFAIINEPFKMDVGKGNFLEIKNKFLARRFKLLEQALVIEEQLRRAAYLNLAQDPSHPAMSLNARFAEVECLAESHQHLSKESLAGNKPANAVLHKVLNQLEELLSDMKSDVSRLPATLARIPPVAQRLQMSERSILSRLA
protein production: failed

HSIVAITDNRGVITHVNEKFCDISQYEYYELVGTTHKIINSGFHPRSFFKQMWKTIAQGNIWKGEICNRTKQGKLYWVDTTIVPLKDND
protein production: failed

MNIILNGGPAELHGTTVADLIAQTAPQKPFAVAVNTVFVPKGAYAETVLNENDKIDIVRPVVGG
protein production: failed

VDRDYLQSEYGVLKAGQCYKVVRSFRDYRNINYERGDVMRFLGSNFVPYESGLSLFFDKNGSERQIMLCVRPEFQMEIAHHLDSYFCKLDDN
protein production: not failed

MARLIIPCRSSSLARVNLLGLLSRAPVPVRSSCLRSSANRLTQHRPFLTSEAICLRKNRFLPHSVDTHKQNSRRLICSVATESVPDKAEDSKMDAPKEIFLKNYTKPDYYFETVDLSFSLGEEKTIVSSKIKVSPRVKGSSAALVLDGHDLKLLSVKVEGKLLKEGDYQLDSRHLTLPSLPAEESFVLEIDTEIYPHKNTSLEGLYKSSGNFCTQCEAEGFRKITFYQDRPDIMAKYTCRVEGDKTLYPVLLSNGNLISQGDIEGGRHYALWEDPFKKPCYLFALVAGQLVSRDDTFTTRSGRQVSLKIWTPAEDLPKTAHAMYSLKAAMKWDEDVFGLEYDLDLFNIVAVPDFNMGAMENKSLNIFNSKLVLASPETATDADYAAILGVIGHEYFHNWTGNRVTCRDWFQLSLKEGLTVFRDQEFSSDMGSRTVKRIADVSKLRIYQFPQDAGPMAHPVRPHSYIKVYEKVWLFTNSVLLYAGAEVVRMYKTLLGTQGFRKGIDLYFERHDEQAVTCEDFFAAMRDANNADFANFLQWYSQAGTPVVKVVSSYNADARTFSLKFSQEIPPTPGQPTKEPTFIPVVVGLLDSSGKDITLSSVHHDGTVQTISGSSTILRVTKKEEEFVFSDIPERPVPSLFRGFSAPVRVETDLSNDDLFFLLAHDSDEFNRWEAGQVLARKLMLNLVSDFQQNKPLALNPKFVQGLGSVLSDSSLDKEFIAKAITLPGEGEIMDMMAVADPDAVHAVRKFVRKQLASELKEELLKIVENNRSTEAYVFDHSNMARRALKNTALAYLASLEDPAYMELALNEYKMATNLTDQFAALAALSQNPGKTRDDILADFYNKWQDDYLVVNKWFLLQSTSDIPGNVENVKKLLDHPAFDLRNPNKVYSLIGGFCGSPVNFHAKDGSGYKFLGDIVVQLDKLNPQVKTPKLTCVFAVTYIM
protein production: failed

MLTVGILGGGQLGWMTILEGRKLGFKFHVLEDKENAPACRVADRCFRTGQISEFVDSCDIITYEFEHIKDEVLEKCESKLIPNPQALYVKKSRIREKLFLKKHGFPVPEFLVIKRDEIIDALKSFKLPVVIKAEKLGYDGKGQYRIKKLEDANQVVKNHDKEESFIIEEFVKFEAEISCIGVRDREGKTYFYPQPFNKHEEGILIYNYVPYAKLKEAEEITKRLMELLDIVGVFTVEFFLLKDGRVLINEFAPRVHNTGHWTLDGAYTSQFENLLRAITEMPLGSTELKLPSGMVNILGKSYEEIPLKEILSVEGAKLYWYGKEKKPRRKVGHVNVVGRSKEEVVEKVERVFTLLKGSREKLPAP
protein production: not failed

MQWRNTSSRYGVFSLFLHWGSALVVFGLFGLGLWMRELSYYDPWYHPAPALHKSIGILLAIALLVRIVWRFVSPPPPAPANHGPLTRVASKLGHLALYGLLLAVIVAGYLISTADGEPISVFGWFSVPATLSGLPDQADVAGEIHLYLAWALVVFAVLHALAALKHHFVDRDPTLKRMLGRSSNDQQPR
protein production: not failed
